Assay results published in the RNAGym collection of RNA variant scans (doi:10.7554/elife.80360).

B1: Hairpin Ribozyme (parent)
chain: GUCCUCUUUCACGUGCGCGUGAAAGAGAGAAGUGAACCAGAGAAACACACGUUGUGGUAUAUUACCUGGUA

Variants of: B1
Experiment: self-cleavage, relative activity (ratio to wild type); higher = more cleavage; co-transcriptional

Variant | self-cleavage
G57A A71G | 0.112
G17A A22G | 1.12
U2A U70C | 0.288
U14G A49G | 0.386
U7G U63A | 0.179
A45U U60A | 0.147
C16G C37A | 0.244
G32C C38A | 0.061
G32A U33A | 0.139
U9C A61U | 0.0555
A45U C48G | 0.14
G25C G51A | 0.591
G25U U33G | 0.168
G13A G68U | 0.218
C6G G34A | 1.02
G1U G21A | 0.129
A23U U58G | 0.663
C48A U55G | 0.251
U2C A31C | 0.226
A22U U52A | 0.836
U8A A61C | 0.165
C4G A35G | 0.153
A44C U67C | 0.099
A24G U55C | 0.196

Variant | self-cleavage
G21C U52G | 0.654
A28G A47U | 0.192
U7C A11U | 0.294
G32U A41U | 0.0937
U52C C65G | 0.426
U20G A39U | 0.311
U20G G68A | 0.14
G32A G40U | 0.0775
C10G A30U | 0.0991
G40C U70G | 0.131
A30C | 0.183
G19C A39C | 0.44
A45C U53C | 0.0463
G15U A71C | 1.53
G32C A36C | 0.159
G1C A41G | 0.129
U8A U62A | 0.105
U8A G42U | 0.261
C12G U63A | 0.194
C4U C12A | 0.333
C38G A39G | 0.117
U7C U33A | 0.068
A24G A61G | 0.254
G34C A47C | 1.38

Variant | self-cleavage
G56U A71C | 0.454
C16U A28G | 1.32
G13C U14C | 0.583
C65G U70A | 0.197
C3G C37U | 0.189
A39U G68A | 0.199
A28C C50G | 0.107
U8C G42U | 0.252
G54U G57C | 0.177
G1C G15A | 0.184
A44G U67G | 0.149
A43C G51C | 0.193
A39C G40U | 0.0957
A36G A45G | 0.28
C50G U60C | 0.353
U9A G32A | 0.179
C3G A59G | 0.0582
A45U A47U | 0.0501
G29A A59U | 0.162
A44C G57A | 0.135
A30G U60G | 0.158
A36G G40U | 0.0848
U9G G27C | 0.115
A11U A61C | 0.137

Variant | self-cleavage
G27A A44C | 0.143
C4U U62A | 0.143
C4G G32U | 0.149
G25C A64U | 0.134
G15A A26U | 0.638
U52A G56U | 0.196
A28C U58G | 0.151
A39G U53G | 0.207
A36U C46U | 0.31
A28U A35G | 0.599
G29A G40C | 0.0971
C3U G27U | 0.15
C12G A39C | 0.436
C6A A71U | 0.423
A45G G56U | 0.131
U2C A30U | 0.0598
A31U A61C | 0.111
U5G C46U | 0.279
C10A C37U | 0.437
C65U G69C | 0.0941
G21U G57C | 0.176
C3G A44U | 0.114
A11G A36G | 0.972
A30G C50G | 0.177

Variant | self-cleavage
A26U U53G | 0.489
G42U A47U | 0.12
C6G C66U | 0.173
U5A C50A | 0.161
U53A U63A | 0.153
C6A A31U | 0.0881
C4A A35G | 0.33
A59U A64G | 0.139
U7A C37A | 0.261
U5C C18U | 0.613
U7A A44C | 0.177
G29A G57U | 0.0366
C10A G68C | 0.114
C37G G40A | 0.0652
A31C A47C | 0.0953
U33A G54A | 0.213
G1A G32A | 0.196
C18U U53C | 1.03
C66A | 0.218
U8C A22G | 0.515
U2G G56C | 0.0624
A35U G51C | 0.484
C3U G25C | 0.0917
A39C C50A | 0.165

Variant | self-cleavage
C16G C48A | 0.0451
U7C A59C | 0.251
A31G A41G | 0.712
A47G A64U | 0.167
A22U A35U | 0.611
U9C G32U | 0.0498
G21C A26G | 0.528
U33A C48A | 0.0899
C4U U20C | 0.24
G34A A41C | 0.826
G56A U58C | 0.162
C3U A28C | 0.452
U5G A39C | 0.129
G1A G34C | 0.09
G13U U14G | 0.729
C3G G29U | 0.0672
G27C A30G | 0.172
C6A G51A | 0.765
A24C C65G | 0.296
G17A G21U | 0.901
C37U G51C | 0.689
G25C U67A | 0.136
G21A U67A | 0.23
U7C G27C | 0.172

Variant | self-cleavage
G57C G68A | 0.195
G42U U52A | 0.379
G34A G42U | 0.406
A24U G57U | 0.188
A23C A61G | 0.161
G56A C65A | 0.097
C4A C48A | 0.131
U7G A49U | 0.15
A11G U14G | 0.846
C4A U8A | 0.16
C16A G54A | 0.388
G34C U55G | 1.19
C6U U33C | 0.135
G40U A47U | 0.131
C12A G25C | 0.346
U5G C16G | 0.146
A28G U53C | 1.06
U7C U63G | 0.161
U33G G56A | 0.221
A44C U70C | 0.176
U33A G51C | 0.157
A24C A49C | 0.308
C4A A71U | 0.138
